This is an account of results in patent US20240425885.

What all share (assay): cleavage_in_vitro
Series [1] has as its system T1, OMNI-129 (metagenomic, unknown).
T1 sequence: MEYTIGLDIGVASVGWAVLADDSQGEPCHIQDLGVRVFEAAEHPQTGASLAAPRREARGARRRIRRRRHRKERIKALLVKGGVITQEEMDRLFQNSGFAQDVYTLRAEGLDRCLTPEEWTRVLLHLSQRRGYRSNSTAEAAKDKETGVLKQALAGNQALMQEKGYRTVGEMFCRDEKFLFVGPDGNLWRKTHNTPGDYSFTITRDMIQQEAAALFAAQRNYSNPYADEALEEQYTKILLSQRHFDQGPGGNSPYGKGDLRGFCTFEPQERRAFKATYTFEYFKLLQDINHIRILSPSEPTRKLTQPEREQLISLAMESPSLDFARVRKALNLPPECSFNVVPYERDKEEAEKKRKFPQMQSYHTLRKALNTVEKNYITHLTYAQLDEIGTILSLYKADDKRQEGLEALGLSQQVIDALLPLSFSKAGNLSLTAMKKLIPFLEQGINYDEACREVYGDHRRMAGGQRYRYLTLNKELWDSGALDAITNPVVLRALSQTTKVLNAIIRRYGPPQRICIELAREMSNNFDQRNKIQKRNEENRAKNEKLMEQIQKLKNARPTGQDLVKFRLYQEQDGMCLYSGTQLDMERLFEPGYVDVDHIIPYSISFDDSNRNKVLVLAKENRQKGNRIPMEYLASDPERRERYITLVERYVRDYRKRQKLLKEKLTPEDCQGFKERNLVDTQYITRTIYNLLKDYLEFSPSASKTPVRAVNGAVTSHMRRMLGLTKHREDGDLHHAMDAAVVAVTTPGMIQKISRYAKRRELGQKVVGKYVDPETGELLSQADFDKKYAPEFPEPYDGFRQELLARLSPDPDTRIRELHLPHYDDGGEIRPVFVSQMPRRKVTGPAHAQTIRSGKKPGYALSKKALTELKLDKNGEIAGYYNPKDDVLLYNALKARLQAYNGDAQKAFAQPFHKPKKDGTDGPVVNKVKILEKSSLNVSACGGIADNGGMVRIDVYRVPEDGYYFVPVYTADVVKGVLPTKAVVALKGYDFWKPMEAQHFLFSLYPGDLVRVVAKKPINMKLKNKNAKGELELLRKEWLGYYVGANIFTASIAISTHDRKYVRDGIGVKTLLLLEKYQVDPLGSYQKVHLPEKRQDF
The note with it: TXTL; PAM NNNNGAAA

Series [2] relates to T2, OMNI-128 (metagenomic, unknown).
T2 sequence: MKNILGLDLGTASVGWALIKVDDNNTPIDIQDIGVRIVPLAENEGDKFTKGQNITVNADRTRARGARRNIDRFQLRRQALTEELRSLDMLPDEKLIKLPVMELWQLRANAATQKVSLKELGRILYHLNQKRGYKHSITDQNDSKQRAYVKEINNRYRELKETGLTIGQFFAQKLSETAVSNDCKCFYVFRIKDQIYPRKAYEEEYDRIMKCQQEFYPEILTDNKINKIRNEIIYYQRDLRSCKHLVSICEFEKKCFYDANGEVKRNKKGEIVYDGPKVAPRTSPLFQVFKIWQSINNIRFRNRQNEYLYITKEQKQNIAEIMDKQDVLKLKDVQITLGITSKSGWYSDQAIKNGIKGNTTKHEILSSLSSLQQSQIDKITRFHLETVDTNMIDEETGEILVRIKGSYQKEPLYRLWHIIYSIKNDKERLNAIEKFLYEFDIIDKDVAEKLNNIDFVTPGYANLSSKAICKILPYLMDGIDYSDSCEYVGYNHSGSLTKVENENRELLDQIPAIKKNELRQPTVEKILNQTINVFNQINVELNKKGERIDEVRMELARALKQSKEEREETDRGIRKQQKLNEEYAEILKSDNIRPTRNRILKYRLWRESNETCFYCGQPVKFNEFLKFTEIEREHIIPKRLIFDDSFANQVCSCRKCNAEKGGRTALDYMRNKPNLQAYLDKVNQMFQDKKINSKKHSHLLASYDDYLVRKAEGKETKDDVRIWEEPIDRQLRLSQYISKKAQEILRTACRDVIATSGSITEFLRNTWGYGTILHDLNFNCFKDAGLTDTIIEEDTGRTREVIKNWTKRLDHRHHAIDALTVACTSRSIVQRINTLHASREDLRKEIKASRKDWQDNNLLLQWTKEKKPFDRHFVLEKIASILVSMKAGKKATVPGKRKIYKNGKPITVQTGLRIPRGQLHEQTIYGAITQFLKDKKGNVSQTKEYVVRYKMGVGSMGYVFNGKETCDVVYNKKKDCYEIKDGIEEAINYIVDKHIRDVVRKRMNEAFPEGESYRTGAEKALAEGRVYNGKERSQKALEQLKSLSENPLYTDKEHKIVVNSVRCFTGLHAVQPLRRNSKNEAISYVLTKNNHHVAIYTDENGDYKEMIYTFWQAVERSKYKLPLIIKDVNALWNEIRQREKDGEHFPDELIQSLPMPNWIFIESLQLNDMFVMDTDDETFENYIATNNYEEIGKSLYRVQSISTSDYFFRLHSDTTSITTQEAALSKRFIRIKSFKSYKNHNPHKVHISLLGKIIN
The note with it: TXTL; PAM NRYHCCNN

In series [3] the test system is T3, OMNI-133 (metagenomic, unknown).
T3 sequence: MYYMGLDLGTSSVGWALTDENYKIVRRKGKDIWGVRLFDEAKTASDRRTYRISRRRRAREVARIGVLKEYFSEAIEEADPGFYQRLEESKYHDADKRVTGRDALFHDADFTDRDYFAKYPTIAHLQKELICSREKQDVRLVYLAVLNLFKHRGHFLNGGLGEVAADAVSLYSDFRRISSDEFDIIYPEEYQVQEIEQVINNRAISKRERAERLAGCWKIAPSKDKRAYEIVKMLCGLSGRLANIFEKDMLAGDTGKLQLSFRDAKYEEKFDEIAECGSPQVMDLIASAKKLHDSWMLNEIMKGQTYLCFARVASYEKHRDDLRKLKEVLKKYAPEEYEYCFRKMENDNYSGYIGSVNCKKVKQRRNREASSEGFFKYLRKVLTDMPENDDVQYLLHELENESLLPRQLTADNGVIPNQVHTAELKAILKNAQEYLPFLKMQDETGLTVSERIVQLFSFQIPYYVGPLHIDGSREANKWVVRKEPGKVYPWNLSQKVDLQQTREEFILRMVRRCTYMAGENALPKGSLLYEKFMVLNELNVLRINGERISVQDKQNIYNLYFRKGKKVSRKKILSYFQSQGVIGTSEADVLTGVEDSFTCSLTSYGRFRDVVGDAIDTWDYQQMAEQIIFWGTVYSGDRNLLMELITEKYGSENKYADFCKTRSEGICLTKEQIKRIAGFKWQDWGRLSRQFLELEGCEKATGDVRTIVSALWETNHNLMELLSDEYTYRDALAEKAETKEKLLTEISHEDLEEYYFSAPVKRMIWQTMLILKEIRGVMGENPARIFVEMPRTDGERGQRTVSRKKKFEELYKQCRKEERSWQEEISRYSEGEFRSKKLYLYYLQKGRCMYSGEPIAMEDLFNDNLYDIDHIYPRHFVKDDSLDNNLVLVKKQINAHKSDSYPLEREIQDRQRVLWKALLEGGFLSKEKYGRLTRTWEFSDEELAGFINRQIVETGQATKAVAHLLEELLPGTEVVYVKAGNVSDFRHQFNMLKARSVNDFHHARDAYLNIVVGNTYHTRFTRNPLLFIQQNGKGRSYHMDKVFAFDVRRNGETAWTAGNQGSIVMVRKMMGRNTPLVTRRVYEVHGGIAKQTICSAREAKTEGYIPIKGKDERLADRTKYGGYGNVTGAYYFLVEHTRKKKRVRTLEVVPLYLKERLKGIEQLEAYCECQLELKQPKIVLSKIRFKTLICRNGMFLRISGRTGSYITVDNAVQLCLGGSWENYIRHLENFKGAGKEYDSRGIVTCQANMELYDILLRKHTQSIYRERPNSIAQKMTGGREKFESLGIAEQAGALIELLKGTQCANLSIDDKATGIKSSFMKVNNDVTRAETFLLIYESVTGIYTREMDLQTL
The note with it: TXTL; PAM NNTAMCNN

Series [4] relates to T4, OMNI-131 (metagenomic, unknown).
T4 sequence: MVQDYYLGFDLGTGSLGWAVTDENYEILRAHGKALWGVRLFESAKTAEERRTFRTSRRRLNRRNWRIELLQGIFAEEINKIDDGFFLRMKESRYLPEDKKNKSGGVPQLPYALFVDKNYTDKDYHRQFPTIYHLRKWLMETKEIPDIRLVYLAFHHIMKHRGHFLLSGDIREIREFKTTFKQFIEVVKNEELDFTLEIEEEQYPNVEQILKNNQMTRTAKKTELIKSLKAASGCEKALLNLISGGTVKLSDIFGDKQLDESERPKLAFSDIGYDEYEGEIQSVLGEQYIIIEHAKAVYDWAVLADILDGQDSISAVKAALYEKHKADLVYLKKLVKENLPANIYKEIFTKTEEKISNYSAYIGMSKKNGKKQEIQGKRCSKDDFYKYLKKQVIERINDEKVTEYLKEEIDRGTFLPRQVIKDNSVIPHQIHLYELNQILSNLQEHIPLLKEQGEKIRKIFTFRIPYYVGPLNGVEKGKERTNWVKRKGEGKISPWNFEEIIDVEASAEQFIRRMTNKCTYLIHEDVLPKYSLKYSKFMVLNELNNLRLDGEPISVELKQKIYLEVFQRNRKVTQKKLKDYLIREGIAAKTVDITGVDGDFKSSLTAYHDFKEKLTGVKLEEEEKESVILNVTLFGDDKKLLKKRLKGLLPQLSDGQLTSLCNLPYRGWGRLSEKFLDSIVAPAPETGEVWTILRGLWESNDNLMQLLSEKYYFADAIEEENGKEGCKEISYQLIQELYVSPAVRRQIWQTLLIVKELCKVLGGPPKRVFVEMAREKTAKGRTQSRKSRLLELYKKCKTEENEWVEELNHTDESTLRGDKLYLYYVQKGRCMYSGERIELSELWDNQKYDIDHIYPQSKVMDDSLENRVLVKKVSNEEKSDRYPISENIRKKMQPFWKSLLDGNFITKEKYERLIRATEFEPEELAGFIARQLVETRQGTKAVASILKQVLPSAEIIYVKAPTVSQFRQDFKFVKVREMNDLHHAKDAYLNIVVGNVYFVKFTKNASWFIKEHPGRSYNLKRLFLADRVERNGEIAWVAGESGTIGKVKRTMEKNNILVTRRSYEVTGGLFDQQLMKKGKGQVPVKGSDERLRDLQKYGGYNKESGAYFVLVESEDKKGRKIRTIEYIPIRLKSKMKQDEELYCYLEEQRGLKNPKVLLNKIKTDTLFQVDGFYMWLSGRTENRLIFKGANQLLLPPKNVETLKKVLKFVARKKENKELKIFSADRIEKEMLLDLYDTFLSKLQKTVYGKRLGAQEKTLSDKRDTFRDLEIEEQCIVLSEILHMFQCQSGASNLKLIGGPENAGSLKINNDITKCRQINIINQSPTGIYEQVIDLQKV
To be noted: TXTL; PAM NRWRCCNN

In turn, “GGAAGAGCAGAGCCUUGGUCUCGUUGUAGUUCCCUAAUGUUGAAAGACAUUAGGUUACUGCGAUCAGGCAGUAUGCCUCAGAGCUCCGCCCUAACCACGUUUUGUGGUUGGGGCGUCUUUGCAUUUUUU / GGAAGAGCAGAGCCTTGGTCTCNNNNNNNN / NNNNNNNNGAGACCAAGGCTCTGCTCTTCC [T2 sgRNA 30 V1 ; T2 protospacer + 8N PAM library (pbPOS T2)]” came in with an activity (1-depletion score) in series [1] of 0.95.
In turn, “GGAAGAGCAGAGCCUUGGUCUCGUUGUGAUUUGCUGAAGAAAUUCAGCAAAUCACAAUAAGGAUUAUUCCGUUGUGAAAACAUUCAAGGCGGCGCAAGUCGCCUUUUUU / GGAAGAGCAGAGCCTTGGTCTCNNNNNNNN / NNNNNNNNGAGACCAAGGCTCTGCTCTTCC [T2 sgRNA 29 V1 ; T2 protospacer + 8N PAM library (pbPOS T2)]” returned an activity (1-depletion score) in series [2] of 0.87.
Consider “GGAAGAGCAGAGCCUUGGUCUCGUUUGAGAACCUUGUAAGAAAUUACAAGGUGAGUGCAAAUAAGGAUUUUUCCGAAAUCACUCCUCAUAAGAGUCCGCAUUGUGCGGUGAAAAGACUCUGCCAAGAGUCUUUUUU / GGAAGAGCAGAGCCTTGGTCTCNNNNNNNN / NNNNNNNNGAGACCAAGGCTCTGCTCTTCC [T2 sgRNA 33 V1 ; T2 protospacer + 8N PAM library (pbPOS T2)]”, for which, in series [3], the activity (1-depletion score) is 0.95.
“GGAAGAGCAGAGCCUUGGUCUCGUUUGAGAAUGAUGUAAGAAAUUACAUCAUAAGUUCAAAUAACGAUUUAUCGAAGACGCCGUUUAUAACGGCCCACAGUGAGUGGAAAGAAAGCUGUUGCUCAUAGGAGCAGCAGUUUUUU / GGAAGAGCAGAGCCTTGGTCTCNNNNNNNN / NNNNNNNNGAGACCAAGGCTCTGCTCTTCC [T2 sgRNA 31 V1 ; T2 protospacer + 8N PAM library (pbPOS T2)]” displayed an activity (1-depletion score) in series [4] of 0.95.
